# Experiments:
# [1] = system: K4 kissing-loop RNA reporter; experiment: apparent KD of K4 kissing-loop reporter; higher = weaker reporter binding; conditions: Eterna round: R107;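 note: bound reporter read as fluorescence of individual clusters on recovered sequencing chips by microscopy, with normalized cluster intensities fitted with a binding model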
# Description: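 RNA-MaP round R107: designed RNA switches with theophylline, tryptophan, arginine or FMN aptamers are transcribed on-chip within common flanks. They are titrated with a labelled K4 kissing-loop RNA reporter in RNA-MaP buffer (100 mM Tris pH 7.5, 80 mM KCl, 4 mM MgCl2), without ligand or with the indicated ligand. Median apparent KD per design.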
# MS2 coat protein = experiment: apparent KD of MS2 coat protein; designed switch direction (-1 OFF switch, 1 ON switch): -1; higher = weaker reporter binding
# In short: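 Each step of the titration lasted 0.8–1.5 h at the lowest concentration and 10–20 min at the highest. The protein, SNAP-549-labelled MS2 coat protein, went from 0.7 or 1.5 nM doubling to 3 µM over RNA switches transcribed on Illumina chips by stalled E. coli RNA polymerase. Normalised cluster fluorescence was curve-fitted, and the per-design median over clusters is given as apparent KD.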
# [2] = input ligand: theophylline 20 uM
# [3] = input ligand: tryptophan 2.4 mM
# [4] = Eterna round: R95, input ligand: FMN 200 uM
# [5] = Eterna round: R95, input ligand: microRNA oligo, concentration not stated
# [6] = Eterna round: R95, input ligand: none
# [7] = input ligand: microRNA oligo, concentration not stated
Sequence,apparent KD of MS2 coat protein (MS2 coat protein; [4]),apparent KD of MS2 coat protein (MS2 coat protein; [5]),apparent KD of MS2 coat protein (MS2 coat protein; [6]),apparent KD of MS2 coat protein (MS2 coat protein; input ligand: FMN 200 uM),apparent KD of MS2 coat protein (MS2 coat protein; input ligand: none),other results
UAUAUAUGAUGUGAUACCAGUGAAGAGCCAGUGAUGUUGGUAGAACUGGUAUAUAAAUAACACCCUUGGCAGCACAAUCACGUAU [whbob_Ex_Theo_B_sa97],,,,,,"apparent KD of K4 kissing-loop reporter ([1]; input ligand: FMN 200 uM): 160 nM; apparent KD of K4 kissing-loop reporter ([1]; input ligand: arginine 13.2 mM): 152 nM; apparent KD of K4 kissing-loop reporter ([1]; input ligand: none): 170 nM; apparent KD of K4 kissing-loop reporter [1, 2]: 212 nM; apparent KD of K4 kissing-loop reporter [1, 3]: 164 nM"
UGUCAUUGGUCGGCCGCCACUAGGACCGGGUUUUACCUAGUGAUGUUAGUAUGAACGGCCGCCACUAGGACCGGGACCGAUGACU [KL-SSTryp-B25 #DoubleAptamer],,,,,,"apparent KD of K4 kissing-loop reporter ([1]; input ligand: FMN 200 uM): 343 nM; apparent KD of K4 kissing-loop reporter ([1]; input ligand: arginine 13.2 mM): 195 nM; apparent KD of K4 kissing-loop reporter ([1]; input ligand: none): 322 nM; apparent KD of K4 kissing-loop reporter [1, 2]: 442 nM; apparent KD of K4 kissing-loop reporter [1, 3]: 113 nM"
AUAUUUAUUUAGUCACUUUUAAUAUUAUGUCAGGAUAUCGUAAUUUCGAGAAGGGACUCAUGCUAGUGAUGUUAGCUAAUUCUCA [JR_Nu3_ExcFMNA_Sub023],,,,,,"apparent KD of K4 kissing-loop reporter ([1]; input ligand: FMN 200 uM): 102 nM; apparent KD of K4 kissing-loop reporter ([1]; input ligand: arginine 13.2 mM): 161 nM; apparent KD of K4 kissing-loop reporter ([1]; input ligand: none): 135 nM; apparent KD of K4 kissing-loop reporter [1, 2]: 160 nM; apparent KD of K4 kissing-loop reporter [1, 3]: 110 nM"
GUGGAACAUGAGGAUCACCCAUGUGAGGAUAUGUGAGAAGGAUUUGAGAGGGAGAGGGACAGAAGGCACUAGGA [JR_Exclu1_Sub084] (puzzle: Exclusion 1),32.7 nM,33.6 nM,41.9 nM,,,
"CAAACCUCAGGAUAUCGAGACUCGGACAUGAGGAUCACCCAUGUGAGGCUCGUGAGUCCACGAGAAGGGAGGAGCA [Eternabot (Original) Solution 38] (Eterna round: R97, puzzle: Exclusion 5)",,,,26.1 nM,17.4 nM,
"AACCUAAUGCGAGGAUAUACUGAGACGUACAGUCGUCAGACAUGAGGAUCACCCAUGUACGCCUCGUAGAAGGCGCGUGACUAA [Bearareus] (Eterna round: R96, puzzle: Exclusion NG 2)",,,,32.6 nM,16.8 nM,apparent KD of MS2 coat protein (MS2 coat protein; [7]): 13.4 nM
"AAAUAAUAGAUAAAAUAAUACAUGAGGAUCACCCAUGUGCGAUGUUGAGGGUGAUACAGGCUUUUUGCUCGUCUUAU (puzzle: Sensor v3, turn-off variant 1)",177 nM,20.5 nM,67.9 nM,,,
"GCCAGAGGAGGAUAUCUAAUAUAUCACAUGAGGAUCACCCAUGUCCAGCGAAAGCUGGAGGGAGAAGGCCUCUGGC [Fiskers Ex 5 - 23] (Eterna round: R96, puzzle: Exclusion 5)",,,,74.8 nM,252 nM,apparent KD of MS2 coat protein (MS2 coat protein; [7]): 172 nM
CUGGUCCGAGGAUAUAUUAAGUGAUACAUGAGGAUCACCCAUGUUAUUUAAUGGAUAUUAAUAGAAGGCGGACUAG [Mat - Exclusion 5 - JL mod - D77] (puzzle: Exclusion 5),34.1 nM,28.4 nM,25.5 nM,,,
GUAUAUAGUGUGAGGAUAUGCUGGUCCUUGGAUCAGCAGAAGGCACAUGAGGAUCACCCAUGUAGUUAAAUAUG [Mat - Exclusion 4 - JL Mod - D21] (puzzle: Brourd's mod of Exclusion 4),,26.3 nM,,,,
"AAGUACUACAAGCUUAGGGACAUGAGGAUCACCCAUGUUCGUCUUAUUGAUCUAGGUACGCUGACGUACCUAGAUCU [Mat - Sensor v3 - turn-off var 1 - JL Mod - D9] (puzzle: Sensor v3, turn-off variant 1)",15.2 nM,58.6 nM,13.2 nM,,,
"UAGCAUUGCCAAAGGUAGUGCAAAACAUGAGGAUCACCCAUGUAGGAUAUGGUAGGCAAAGCUUACCAGAAGGACAUGAUAAAU [Mat - Exclusion NG 3 - Mod of JL - D18] (Eterna round: R96, puzzle: Exclusion NG 3)",,,,327 nM,54.5 nM,apparent KD of MS2 coat protein (MS2 coat protein; [7]): 39.7 nM
GAAAAGGUAGGAUAUACGAAAAAAAAGGGUAGAAGAAAAACACAUGAGGAUCACCCAUGUAGAAGGACCAAAAG [salish99_ex2_r3_022] (puzzle: Exclusion 2),107 nM,18.6 nM,23.5 nM,,,
"AAGUCUGGUGUAAGGAUAUUGUUAGACUUGGUGAGCAAGAAGGUACAUGAGGAUCACCCAUGUGGGAUACUAGC [Eternabot (Original) Solution 41] (Eterna round: R97, puzzle: Brourd's mod of Exclusion 4)",,,,40.5 nM,40 nM,
"CUCCGGCGUGUAGGAUAUGGUUCCGUUUAGGAUCCAGAAGGACAUGAGGAUCACCCAUGUACAUGUCGUCGGUCGUCACCGGGC [salish99_ExNG1_r04_212] (Eterna round: R96, puzzle: Exclusion NG 1)",,,,110 nM,28.5 nM,apparent KD of MS2 coat protein (MS2 coat protein; [7]): 24.5 nM
GAGAUGUGAGGAUAUCUAGACCGCGGAAGAGCCGCAGUCCGAGAGAAGGCACAUGAGGAUCACCCAUGUGAUGA [Teorgeor] (puzzle: Exclusion 4),,36 nM,,,,
AAGAAACAUGAGGAUCACCCAUGUGAGGAUAUGACGAAGAAAAGAAAAGAAAGAAGAAUCAGAAGGCACAAAGG [salish99-ex1_r3_052] (puzzle: Exclusion 1),64.1 nM,40.8 nM,51.6 nM,,,
"AGUUGUUGCGCAGGAUAUGAGGAUCACCCAUAGUAGGAUAUCGAAAGGGAAGGACUGAGGAUUACCCAGAAGGGCGUGAUGACA [pwkr exNG2 2xF5 2xFMN.7] (Eterna round: R96, puzzle: Exclusion NG 2)",,,,1530 nM,302 nM,apparent KD of MS2 coat protein (MS2 coat protein; [7]): 292 nM
"GUUAAUUGUCAGAUGGGUGACAUGAGGAUCACCCAUGUCACAAGCUUUUUGCUCGUCUUAUAAUUAACCCAUCUGAC [Stov1/11-A3] (Eterna round: R97, puzzle: Sensor, turn-off variant 1)",,,,13.6 nM,13.3 nM,
AGUGCGUAUGUGAGGAUAUGCUGGUCCUUGGAUCGGCAGAAGGCACAUGAGGAUCACCCAUGUGGUGUCGUACC [salish99_Bmod_ex4_076] (puzzle: Brourd's mod of Exclusion 4),,136 nM,,,,
ACUAGAUGAGGAUAUGCAUAUUUUCGUGUUCUUCUAGAUUAACAUGAGGAUCACCCAUGUAGAAGGCGUCAAUA [Exclusion 2 - 15] (puzzle: Exclusion 2),,15.4 nM,,,,
CCGGCUUAGCAGGAUAUAGGAGUCGAUAGACACCUAGAAGGGCUAACAUGAGGAUCACCCAUGUGUCCUACCGG [Fiskers Ex 6 - 100] (puzzle: Exclusion 6),65 nM,25.9 nM,30.7 nM,,,
"CAGUACUGAGGAUAUACAUGAGGAUCACCCAUGUUUUCCAGCUAGGAAACUAGCAAGUGUAGAAGGCAGUACUG [Salish 065 m6] (Eterna round: R97, puzzle: Exclusion 3)",,,,342 nM,25.6 nM,

# — the supplement of paper PMC9170038
